The data set concerns the molecule itself. Kind of data set: SEC.

The stoichiometry N is the number of molecules, sites or subunits per partner or assembly.

B1: hASRGL1-C202A (enzyme, human, UniProt Q7L266 1-308, looked up)
chain: MNPIVVVHGGGAGPISKDRKERVHQGMVRAATVGYGILREGGSAVDAVEGAVVALEDDPEFNAGCGSVLNTNGEVEMDASIMDGKDLSAGAVSAVQCIANPIKLARLVMEKTPHCFLTDQGAAQFAAAMGVPEIPGEKLVTERNKKRLEKEKHEKGAQKTDCQKNLGTVGAVALDCKGNVAYATSTGGIVNKMVGRVGDSPALGAGGYADNDIGAVSTTGHGESILKVNLARLTLFHIEQGKTVEEAADLSLGYMKSRVKGLGGLIVVSKTGDWVAKWTSTSMPWAAAKDGKLHFGIDPDDTTITDLP
B1: the “stoichiometry N” value was found to be 2.

B2: hASRGL1-C202S (enzyme, human, UniProt Q7L266 1-308, looked up)
chain: MNPIVVVHGGGAGPISKDRKERVHQGMVRAATVGYGILREGGSAVDAVEGAVVALEDDPEFNAGCGSVLNTNGEVEMDASIMDGKDLSAGAVSAVQCIANPIKLARLVMEKTPHCFLTDQGAAQFAAAMGVPEIPGEKLVTERNKKRLEKEKHEKGAQKTDCQKNLGTVGAVALDCKGNVAYATSTGGIVNKMVGRVGDSPSLGAGGYADNDIGAVSTTGHGESILKVNLARLTLFHIEQGKTVEEAADLSLGYMKSRVKGLGGLIVVSKTGDWVAKWTSTSMPWAAAKDGKLHFGIDPDDTTITDLP
Consider B2, for which the “stoichiometry N” value amounted to 2.

These data come from publication PMC4809669 (Biochemistry, 2016).
